# Measurements reported in the DeepSol protein solubility set.
# Assay: soluble on expression in E. coli; label from the status in PepcDB or PDB records
row,Sequence,soluble on expression in E. coli
1,MMEKSTLLQIKRDIETCVGQKIQLKANKGRKKAFIREGIVENTYPSIFVVKFENDYDTVRRVSYSYTDILTKAVEITVCEDNRKIQVS,soluble
2,MMEPTIHLRQAKAGDIPAILEIEQECFQEDSFSREQFVYLICRSKGTFYVVVEQERIIAYVSLLFHAGTRYLRIYSIAVHPDCRGRKLGQLLMERTIETALDCRAVKITLEVKESNTPAIKLYMKNGFIPVGVKPNYYHDGSDAIYMQRHM,not soluble
3,MMEVLTGPERRRRWSVEEKLALVRESFEPGKTVSMVARQHGVNPNQVFHWRKLYQDGSLSAVSAGEEVVPASELAEALKLVRVLQRMLGKKTMENEILREAVEYGRAKKWIARSPSLPGDDQLEHHHHHH,not soluble
4,MMFPAKIISLRGGATEAIVSADLDRKTELAQETATRWFERRLSLRSPLDPPLPERPGRPEKPELVPPTAVERRSLHSVKGRIALLHAIAHIELNAVDLALDIVARYASEPVPHSFFDGWMQVAFEEAKHFRLVRDRLVSLGADYGDLPAHDGLWQAAHSTRNDLTARLAVVPLILEARGLDVTPSLQAKMRETGDLESAAVLDVIYNDEKGHVAIGAKWFRFLCAREKKDPAATFRQLVRSNFRGPLKPPFNDLARAEAGLTPSFYRSLTSVSHSLEHHHHHH,not soluble
5,MMGSKMASASRVVQVVKPHTPLIRFPDRRDNPKPNVSEALRSAGLPSHSSVISQHSKGSKSPDLLMYQGPPDTAEIIKTLPQKYRRKLVSQEEMEFIQRGGPE,soluble
6,MMHTWFECKIRYEKVMENGMNKKVTEPYLVDALSFTEAEARIIEEITPYISGEFTVSDIKRANYSELFPSEEDAADRWFKCKLFFITLDEKSGAEKKTSTTVLVQASDLRDAVKKLDEGMKGTMADYVIASVAETAIMDVYPYEAEPDVKPEFPDAGKTE,not soluble
7,MMIFEKIHTVPTSEELTNKAFKRAARAMSGKTIDGRDSRFKANESMLLTAANIFTDNLANIVRRFPSFEQLPRFYYELTDILVGVEKLKMSLASVDWASRKIHEVARSYVGKIRESDIPEPVRKEAFGRLASIINSINKDLLFLNEARNILRKLPDVQDEPTIVIAGYPNVGKSSFVSKITGATPEIAPYPFTTKGVTIGHFTRDGVRYQVMDTPGLLDRPMAERNDIERQAITAIHYLDAVVMVVIDPSESCGYELQDQRRLLAEIRENFNLPLLVVANKADRPEFMKMDEVELNMSTITGEGIEQVMDRLLEMIEEKRLRSLEEAPSEESDDESALLEHHHHHH,soluble
8,MMKILPHVTNETAPLRTVVLGLPDSTGGAPALADTYDAKSYESVLRGTYPSDEDIKIEMDAVLDVLVRHGIEVLRPEPIANYNQIFARDVAFAIDDKLFVSNLIADRARESEAFSPIWDCVGESHLVRLSEDIHAEGGDILLYDDILFIGTYLQKDYPSFKTARTNARAVDFFREFFPHKTIIPIELIKHDTDPMRSVLHLDCAFQPVGRSRAIVYRQGFLHSESFGLITEIFGGRDNLFEITPEEAYMMNTNIFSISPDTVISEQNFVRLNNHLREAWGMTVEEVPYAEISKQGGLLRCSTMPLVRE,not soluble
9,MMKRQLHRMRQLAQTGSLGRTPETAEFLGEDLLQVEQRLEPAKRAAHNIHKRLQACLQGQSGADMDKRVKKLPLMALSTTMAESFKELDPDSSMGKALEMSCAIQNQLARILAEFEMTLERDVLQPLSRLSEEELPAILKHKKSLQKLVSDWNTLKSRLSQATKNSGSSQGLGGSPGSHSHTTMANKVETLKEEEEELKRKVEQCRDEYLADLYHFVTKEDSYANYFIRLLEIQADYHRRSLSSLDTALAELRENHGQADHSPSMTATHFPRVYGVSLATHLQELGREIALPIEACVMMLLSEGMKKEGLFRLAAGASVLKRLKQTMASDPHSLEEFCSDPHAVAGALKSYLRELPEPLMTFDLYDDWMRAASLKEPGARLQALQEVCSRLPPENLSNLRYLMKFLARLAEEQEVNKMTPSNIAIVLGPNLLWPPEKEGDQAQLDAASVSSIQVVGVVEALIQSADTLFPGDINFNVSGLFSAVTLQDTVSDRLASEELPSTAVPTPATTPAPAPAPAPAPAPALASAATKERTESEVPPRPASPKVTRSPPETAAPVEDMARRSPRGATGR,soluble
10,MMLCFQEVALNGGNILSKFTERLLTILYPPICPGCKQRVSAYGTICSECWKDLQFITKPYCPVMGVPFVYDMGDGFLSGEALQNSLPFSRVRSVIVHKGVAQSLVTRLKYGDHVELASFMANWMVSAGREIVDDCDIIISVPLHFRRFLKRRYNQSAELARYIARVQKKEFKPGWLVRCRHTRPQVNLSARERKLNVLNAFEVPRKVKKYLKGRSILLIDDVFTTGATVTAAAATLKRAGARQVDVLTFSRVLKEASIFPNS,not soluble
11,MMLEQLIQLKQDLIDGSKVEKPSLDDKQIDEMDILVSEALEFNKELKFKLFNKGFVENVTGRVHYINFEQQKLHVKDQNDNTVYINMNNIIRVIYND,not soluble
12,MMLFSNLIKENQKIWNAYLHHDFVKKLEDKSLKQENFLFYLKQDYIYLLNYAKCYARLALNSNTAKELRFAMKFQNYIVEGEMELHRAILSLGINADELDIKDESLVNIAYSRYMLSVGENGDFLDMLVALSACAIGYAKIGAEIINRLKNENLKDHPYKEWILTYGSENFQNEAKEFEDFVNSYTSSVGAQKFQKLSEIFHTVTRLEVAFWEHSLRMELNLLEHHHHHH,soluble
13,MMLSKVLRNSPLLFRVAQPKDHERIIKFLDKHFAKEEPCSRALKISPEISRGVFTATVTRCLTTPFSTVVLQENGDLAACLLASVWNRTDPLENADFDDTGLPENFKLFIQFLNKAHLNFWKIAPPNVNSIIHREIGSVAPQFTRLGIATKMVTTNMTKRNLKKYNIGGVLSETTSLANQIVLEKAGFKCLKELPYSTIVDSKGNQVLKLDDGTTSLCLNFKPIEEYENLPE,not soluble
14,MMLYFITFREARVLLKSRDLALINVDLMKTGKKIRVRVSKDYVEFPDGSRVKKEIIKRIAEDEGNVYFVRDGEVFKAAIAGEHFYKLVPTIPPTIEINGIRMHRTKGTDPLKDTIAKVNTVKPREGEVVLDTCMGLGYTAIESAKRGARVITIEKDPNVIELAKINPWSRELFESPKIKILQGDSFDLIKKFEDESFDVIIHDPPRFSLAGELYSEEFYMEMFRVLKPGGRLFHYVGNPGKRYRGLDLQKGVMERLRRVGFMKVRRVQEALGVFALKPSLE,soluble
15,MMMSSEMIHVEVVYALPHEQRVLKLVVEQSATVEEIIRTSGILQMYPEIDLTVNKVGIFSRNVKLDARVRDKDRIEIYRPLLADPKEIRRKRAEQAKAAANQS,not soluble
16,MMNEPQVSFITVCYNGFKDTCELIESLQTHVHSVSYEIIVVDNASREDEATKIKELYSDIVTLRSESNLGFSGGNNLGIRVAKGAYIFLINNDTYVESDGFHYLTERLESQKNIGAVSPKIRFAFPPQNIQFAGFTSLSAITIRNEMTGFGCPDDGTFDTPHTTPYLHGAALMVKREVIEKVGEMPEIFFLYYEEMDWCTQMTNAGYELWYEPRCTVFHKESQSTGQFSKLRTFYMTRNRLLYTRRNRKGAQRLLSILYQSTIAAGKNSLQFAVKGRFDLFAAVWKGVVRSFSVTSPIRLEHHHHHH,not soluble
17,MMNMITVIGFGSFGRKVVNFIKNKEPITIIDKNIDDADDLVKEGVTVIVGDATQDEVLKKAKIENADIVLILTNEPEVNRRIAERVCELSPNSYKIARAIPRYPELYMGLNIDKIINILESGAKDIAKEVEDAKLKRKLMQLKSVLIEGKKRCMKLEKTEEEKKAPLLILTHINPDPDAIASAMALKTLAERWGVDSDIAYGGNIGYDENKAMINLLGIKLLNVEDIDLDNYCVIAVIDTSTSKQLPIELPNIDIIIDHHNNTDLTAKYMDVRPEVGATASILTQYLMELDIEPSRNLATALFYGIQSDTDYFKRETSKLDFEAAAYLQSYIDASILNMIENPEISTEVMEVLAKAVMNRRVVKGNIALAYVGEISNRDALPKAADFLLKMEGISTTFVFGIVGDEIHISARTKDLRLNLGEILNKAFGGGGHQTAAAAKIPLGIFKAVSDKEALRKLVEEAIRAKILEVIGIKEEEK,not soluble
18,MMNQSRIKPVRMLILLRKLSPISRRIRIRNRLKQKTRSATIKSRCNPCLISVLANCYWCSSSASPPSGAATTACGGKNGSGLDSRVAFTGDNGAERTDPGVKTPGVSGQSEKG,not soluble
